The values below come from US20220401560A1, “PEPTIDE ENCAPSULATING FERRITIN” (Ajinomoto Co., Inc., priority 2019, published 2022).

For the experiment, the target named is transferrin receptor TfR (human) (UniProt P02786). As to the kind of experiment: cell-based or functional assay.

FAM-SV40 encapsulating FTH, sequence (P02794 whole entry): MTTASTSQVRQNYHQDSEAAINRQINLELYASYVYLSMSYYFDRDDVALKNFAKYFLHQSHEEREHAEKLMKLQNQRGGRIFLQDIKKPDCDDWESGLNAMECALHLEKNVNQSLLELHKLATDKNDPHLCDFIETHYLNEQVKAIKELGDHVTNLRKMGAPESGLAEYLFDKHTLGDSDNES

In the case of “FAM-SV40 encapsulating FTH (from UniProt P02794 1-183)”, the concentration needed for fluorescence from 90% or more of HEK 293E cells (low TfR expression) by FACS is over 800 nM; the percent of fluorescent SKBR 3 cells (high TfR expression) by FACS at 100 nM FAM-SV40 encapsulating FTH was over 90%; the ratio of fluorescent cells, SKBR 3 (high TfR) against HEK 293E (low TfR), at 100 nM was 60 times.
